The record followed here is publication PMC6153294 (The Journal of Biological Chemistry, 2018).

In the experiment the target is T1, recombinant FGFR1c extracellular domain protein (Homo sapiens, UniProt P11362).
T1 construct: FGF receptor 1, 'c' splice isoform, human, extracellular domain; also called human FGFR1c
Briefly: SPR; kinetic-binding assay on Biacore T200: His-tagged human β-Klotho and FGFR1c captured (about 40 RU and 60 RU) on immobilised mouse anti-His antibody (CM5); 39F7 (100 nM) and FGF21 (500 nM) injected in PBS, 0.1 mg/ml BSA, 0.005% Surfactant P20. The conditions noted are these: both partners purified. (In SPR one partner is held on a chip, and binding of the other changes the refractive index at the surface.)

T1 sequence (P11362 22-376): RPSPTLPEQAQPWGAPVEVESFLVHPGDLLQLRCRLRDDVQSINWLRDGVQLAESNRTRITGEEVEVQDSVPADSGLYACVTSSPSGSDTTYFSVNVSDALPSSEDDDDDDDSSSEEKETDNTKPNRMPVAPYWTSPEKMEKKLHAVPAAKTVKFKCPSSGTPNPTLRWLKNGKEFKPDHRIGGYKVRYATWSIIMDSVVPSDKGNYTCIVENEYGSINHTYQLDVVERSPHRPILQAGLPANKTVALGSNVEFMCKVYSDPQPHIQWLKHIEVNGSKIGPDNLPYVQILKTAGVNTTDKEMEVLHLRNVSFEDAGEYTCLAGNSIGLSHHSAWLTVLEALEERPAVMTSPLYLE

B1: 39F7 agonistic monoclonal antibody against β-Klotho (full IgG) (antibody, V domains shown)
VH: QVQLVESGGGVVQPGRSLRLSCAASGFTFSNYGIHWVRQAPGKGLEWVAVIWYDGSIKYYADSVKGRFTISRDNSKNTLYLQMNSLRAEDTAVYYCARDRAAAGLHYYYGMDVWGQGTTVTVSS
VL: not shown
notes: Identified from an immunisation campaign in XenoMouse with a complex of β-Klotho and FGFR1c; also called mAb 39F7; 39F7 IgG; copies: 2 + 2
Take B1: the binding result is listed as “no binding (tested: 100 nM)”.
